Results as given in article PMC5120866 (Cancer research, 2016).

Target: Integrin β3 (human (endogenous in ovarian cancer …, UniProt P05106 27-788))
Assay: co-IP

Sequence of Integrin β3 (human (P05106 27-788): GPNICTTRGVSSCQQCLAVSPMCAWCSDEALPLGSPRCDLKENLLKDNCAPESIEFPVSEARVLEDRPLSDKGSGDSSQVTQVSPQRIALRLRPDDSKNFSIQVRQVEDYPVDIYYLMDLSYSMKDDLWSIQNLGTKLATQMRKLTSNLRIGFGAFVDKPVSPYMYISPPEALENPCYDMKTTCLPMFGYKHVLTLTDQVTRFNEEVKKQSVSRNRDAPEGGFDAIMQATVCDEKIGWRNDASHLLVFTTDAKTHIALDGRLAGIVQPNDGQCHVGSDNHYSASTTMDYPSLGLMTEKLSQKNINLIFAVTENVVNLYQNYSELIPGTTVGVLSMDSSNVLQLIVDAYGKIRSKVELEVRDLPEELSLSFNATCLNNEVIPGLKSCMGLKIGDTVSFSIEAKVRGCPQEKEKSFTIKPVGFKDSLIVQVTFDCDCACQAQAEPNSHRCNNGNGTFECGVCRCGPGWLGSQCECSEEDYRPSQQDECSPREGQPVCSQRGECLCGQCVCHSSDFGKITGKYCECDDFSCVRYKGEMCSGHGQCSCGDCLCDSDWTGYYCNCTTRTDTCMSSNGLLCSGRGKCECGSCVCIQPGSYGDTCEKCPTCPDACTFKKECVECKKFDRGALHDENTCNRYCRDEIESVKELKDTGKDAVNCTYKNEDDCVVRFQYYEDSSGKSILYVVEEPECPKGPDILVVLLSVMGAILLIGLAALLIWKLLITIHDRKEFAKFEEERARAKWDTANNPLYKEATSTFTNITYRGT

B1: EGFL6 (wild-type, FLAG-EGFL6) (ligand, human, UniProt Q8IUX8-1 22-553, looked up)
chain: NAASARHHGLLASARQPGVCHYGTKLACCYGWRRNSKGVCEATCEPGCKFGECVGPNKCRCFPGYTGKTCSQDVNECGMKPRPCQHRCVNTHGSYKCFCLSGHMLMPDATCVNSRTCAMINCQYSCEDTEEGPQCLCPSSGLRLAPNGRDCLDIDECASGKVICPYNRRCVNTFGSYYCKCHIGFELQYISGRYDCIDINECTMDSHTCSHHANCFNTQGSFKCKCKQGYKGNGLRCSAIPENSVKEVLRAPGTIKDRIKKLLAHKNSMKKKAKIKNVTPEPTRTPTPKVNLQPFNYEEIVSRGGNSHGGKKGNEEKMKEGLEDEKREEKALKNDIEERSLRGDVFFPKVNEAGEFGLILVQRKALTSKLEHKDLNISVDCSFNHGICDWKQDREDDFDWNPADRDNAIGFYMAVPALAGHKKDIGRLKLLLPDLQPQSNFCLLFDYRLAGDKVGKLRVFVKNSNNALAWEKTTSEDEKWKTGKIQLYQGTDATKSIIFEAERGKGKTGEIAVDGVLLVSGLCPDSLLSVDD
fold co-immunoprecipitation against EGFL6^RGE: 4.6 fold
